This is an account of results in patent US20240247073A1 (CONCEPT TO MEDICINE BIOTECH, published 2024).

Test [1] concerns the target T1, human CD40 on the cell surface (human, UniProt P25942 21-277).
T1 construct: whole, on cells; also called cell surface CD40; Jurkat-CD40 cells
The experiment in a line: flow cytometry on human monocyte-derived dendritic cells (CD11c+ gate), PE anti-human IgG Fc, MFI. Background: A flow cytometer gives signals particle by particle.

Test [2] concerns the target T2, human CD40-His protein (human, UniProt P25942 21-193).
T2 construct: Recombinant His-tagged protein; also called human CD40-his tag; recombinant CD40 protein; not shown: His tag
The experiment in a line: ELISA, coated human CD40-His. The procedure:
(§1) Briefly, microtiter plates were coated with human CD40-His protein at 1.0 μg/ml in PBS, 100 μl/well at 4° C. overnight, then blocked with 150 μl/well of 1% BSA. Ten-fold dilutions of 42p155, 2p834, 2p931, 42p655, 2p1294, 2p957, 42p495, 3p78, 2p415, 2p442, 2p551, 2p80 and 2p1130 antibodies starting from 100 nM were added to each well and incubated for 1 hour at RT. The plates were washed with PBS/Tween and then incubated with Anti-Human IgG (H&L) (GOAT) Antibody Peroxidase Conjugated for 30 mins at RT. After washing, the plates were developed with TMB substrate and analyzed by spectrophotometer at OD 450 nm.
On the technique in general: An ELISA detects its analyte on a solid surface through an enzyme-linked reagent.

The target of test [3] is T3, cynomolgus CD40-His protein (cynomolgus, UniProt G7PG38 21-193).
T3 construct: Recombinant His-tagged protein; also called cyno CD40 antigen; not shown: His tag
The experiment in a line: ELISA, coated cynomolgus CD40-His. Here is the method: as §1, with “The binding affinity of these clones to cynomolgus CD40 was also tested. Microtiter” for “Briefly, microtiter”, “cynomolgus” for “human”, “4 °C” for “4° C.”, “nm. As shown in FIG. 1B and Table 2, all these clones bound to cynomolgus CD40 at high activity, showing good cross-reactivity between human and cynomolgus CD40 proteins.” for “nm.”

In test [4] the target is T2, human CD40-His protein. The experiment in a line: SPR (Biacore T200), antibody captured on Protein A. Here is the method:
The binding of the humanized 42pl55 and 2p442 antibodies to recombinant human CD40 protein (human CD40-his tag) was tested by Biacore and Octet, respectively, using a capture method.
For humanized 42pl55 monoclonal antibodies, 42p155z2 and 42p155z3 were captured using Protein A chip. A serial dilution of human CD40-his tag protein was injected over captured antibody for 3 mins at a flow rate of 10 μl/min. The antigen was allowed to dissociate for 6 min. All the experiments were carried out on a Biacore T200. Data analysis was carried out using Biacore T200 evaluation software.
Background: SPR reads the build-up and loss of mass on a sensor chip optically.

In test [5] the target is T1, human CD40 on the cell surface. Briefly: flow cytometry on Jurkat cells overexpressing human CD40, PE anti-human IgG, MFI. The procedure:
To evaluate their binding affinity to cell surface CD40, chimeric anti-CD40 monospecific antibodies were tested in Jurkat cell lines that overexpressed CD40 by FACS. A total number of 1×10⁵ Jurkat-CD40 cells in each well were incubated with 10-fold serially diluted antibodies starting from 100 nM for 30 minutes at 4° C. in FACS buffer. After wash by FACS buffer, PE conjugated-anti-human IgG antibody was added to each well and incubated at 4 °C for 30 minutes. After wash, MFI of PE was evaluated by MACSQuant Analyzer 16.

T1 sequence (P25942 21-277): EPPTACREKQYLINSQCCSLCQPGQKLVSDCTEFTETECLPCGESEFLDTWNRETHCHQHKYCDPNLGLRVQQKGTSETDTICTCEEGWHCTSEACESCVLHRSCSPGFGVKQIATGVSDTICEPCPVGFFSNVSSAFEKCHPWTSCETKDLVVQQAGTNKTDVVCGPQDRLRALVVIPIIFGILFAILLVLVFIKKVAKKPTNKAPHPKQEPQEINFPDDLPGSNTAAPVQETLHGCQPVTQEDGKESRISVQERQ
T2 sequence (P25942 21-193 limits assumed): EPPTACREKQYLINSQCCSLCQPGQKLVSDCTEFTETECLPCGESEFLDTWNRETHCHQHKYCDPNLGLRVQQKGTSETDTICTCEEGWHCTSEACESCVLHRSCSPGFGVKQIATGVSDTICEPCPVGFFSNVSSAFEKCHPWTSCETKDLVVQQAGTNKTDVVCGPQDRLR

B1: 2p834 anti-Claudin 18.2/CD40 bispecific antibody (bispecific antibody, part only; not given: Claudin 18.2 Fab, constant regions, linker, V domains shown, not shown: another chain or arm of the molecule; a dimerising Fc or GST; small tags and cut ends)
VHH: QSQLVESGGGLVQPGGSLRLSCAASGFAFRRYTMSWVRQAPGKGLEWVSTITHNGSITTYAESAQGRFTISRDNAKNTLYLQMNSLKPEDTAVYYCAQGGGSNYYRESWGQGTQVTVSS
For orientation: EC50 (read off the curve) means the concentration needed to bring the measured effect to its halfway point. As for B1, the concentration for a half-maximal effect (EC50 (read off the curve)) in test [1] was 1 nM.

B2: 42p155 chimeric monospecific antibody (antibody, V domains shown)
VH: PSQLVESGGGLVQPGGSLRLSCAASGFAFRSYTMSWVRQAPGKGLEWVSTITHNGAITTYAESAQGRFTISRDNAKNTLYLQMNSLKPEDTAVYYCAQGGGSNYYRESWGQGTQVTVSS
notes: VHH-chimeric monospecific antibody (cAb), detected with anti-human IgG; also called 42pl55; not shown: human constant part (Fc) of the chimeric VHH antibody
Broadly, the EC50 is the concentration needed to bring the measured effect to its halfway point. Low values mean an effect from little substance, high ones a need for much substance. In general, Kd refers to the constant that tells how readily two partners part at equilibrium. Lower therefore signals a tighter complex. One may read the koff as a measure of how fast the partners let go of each other. For orientation: kon means the rate constant with which the complex forms. A low value points to slower complex formation. In the case of B2, the concentration for a half-maximal effect (EC50) in test [2] stood at 1.73 nM. This molecule returned a concentration for a half-maximal effect (EC50) in test [3] of 0.9 nM. Also, in test [4], the Kd was 86.9 nM, the koff amounted to 0.0451 s⁻¹ and the kon was determined as 519000 M⁻¹ s⁻¹. Also, in test [5], the “EC50 (read off the curve)” value was ~0.3 nM.

B3: 2p1294 chimeric monospecific antibody (antibody, V domains shown)
VH: QVQLVESGGGLVQPGGSLRLSCAASGFSFRRYTMSWVRQAPGKGLEWVSAISDNGAITTYTESAQGRFTISRDNAKNTLYLQMNSLKPEDTAVYYCAQGGGSNYYRESWGQGTQVTVSS
notes: VHH-chimeric monospecific antibody (cAb), detected with anti-human IgG
As to B3, the “EC50 (read off the curve)” value in test [5] was ~0.3 nM.

B4: 42p495 chimeric monospecific antibody (antibody, V domains shown)
VH: PVQLVESGGNLVQPGGSLRLSCVAPGFTSRNSAMSWVRQAPGKGLEWVSTIYSGKSNTDYADSVKGRFTISTDNAKNTLYLHMNKLKSEDTAVYYCAKGAASDWYVPRDYWGQGTQVTVSS
notes: as for B3
On to B4, for which the “EC50 (read off the curve)” value in test [5] is ~2 nM.

B5: 2p957 chimeric monospecific antibody (antibody, V domains shown)
VH: PVQLVESGGGLVQPGGSLRLSCAASGFSFRNYIMSWVRQAPGKGLEWLSSITNSGGITSYTESVKGRFTISRDNAKNTLYLQMNSLKPEDTAVYYCAQGGSDNYYRGSWGQGTQVTVSS
notes: as for B3
Consider B5, for which, in test [5], the “EC50 (read off the curve)” value was ~3 nM.
